Source: patent US20150344570A1 (published 2015)
Numbering of substitutions follows the chain as printed. In names and notes the source's numbering stands.

T1: FcgRIIaR (human, UniProt P12318 34-217)
T1 construct: extracellular domain; also called FcγRIIa R; FcγRIIa type R; not shown: His tag at the C terminus
T1 sequence (looked up): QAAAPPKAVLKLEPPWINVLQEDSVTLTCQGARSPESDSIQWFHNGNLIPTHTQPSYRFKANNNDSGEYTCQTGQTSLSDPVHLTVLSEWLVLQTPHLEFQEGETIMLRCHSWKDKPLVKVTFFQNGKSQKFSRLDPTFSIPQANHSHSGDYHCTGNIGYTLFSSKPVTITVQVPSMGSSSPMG

T2: FcgRIIaH (human, UniProt P12318 34-217)
T2 construct: extracellular domain; also called FcγRIIa H; FcγRIIa type H; not shown: His tag at the C terminus
T2 sequence (looked up): T1 sequence (looked up) with R134H

T3: FcgRIIb (human, UniProt P31994 43-217)
T3 construct: extracellular domain; also called FcγRIIb; CD32B; not shown: His tag at the C terminus
T3 sequence (looked up): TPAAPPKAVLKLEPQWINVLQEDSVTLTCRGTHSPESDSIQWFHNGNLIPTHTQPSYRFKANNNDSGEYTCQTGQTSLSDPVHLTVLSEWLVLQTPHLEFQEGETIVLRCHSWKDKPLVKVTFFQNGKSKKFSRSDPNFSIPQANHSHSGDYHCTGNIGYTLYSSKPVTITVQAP

B1: H240-Kn032/H240-Hl032/L73-k0 (antibody, human IgG1, kappa)
heavy 1: QDQLVQSGAEVKKPGASVKVSCKASGFNIKDTYIQWVRQAPGQGLEWMGRIDPLRKQTKYREKFEGRVTITADTSTNTAYMELSSLRSEDTAVYYCVRSGREFDYWGQGTLVTVSSASTKGPSVFPLAPSSKSTSGGTAALGCLVKDYFPEPVTVSWNSGALTSGVHTFPAVLQSSGLYSLSSVVTVPSSSLGTQTYICNVNHKPSNTKVDKKVEPKSCDKTHTCPPCPAPELLGGPDVFLFPPKPKDTLMISRTPEVTCVVVDVSHEDPEVKFNWYVDGVEVHNAKTKPREEQYNSTYRVVSVLTVLHQDWLNGKEYKCKVSNKALPLPEEKTISKAKGQPREPQVCTLPPSRDELTKNQVSLWCLVKGFYPSDIAVEWESNGQPENNYKTTPPVLDSDGSFFLYSKLTVDKSRWQQGNVFSCSVMHEALHNHYTQKSLSLSP
heavy 2: B1 heavy 1 with C348Y, D355C, W365S, L367A, Y406V
light: DIQMTQSPSSLSASVGDRVTITCRASQDIHKYIAWYQQKPGQAPRLLIQYTSTLQPGVPSRFSGSGSGTDYTFTISSLQPEDIATYYCLQYEQLRTFGGGTKVEIKRTVAAPSVFIFPPSDEQLKSGTASVVCLLNNFYPREAKVQWKVDNALQSGNSQESVTEQDSKDSTYSLSSTLTLSKADYEKHKVYACEVTHQGLSSPVTKSFNRGEC
notes: S239D/A330L/I332E in both H chains
B2: H240-afucosyl_G1d/L73-k0 (antibody, human IgG1, kappa)
heavy: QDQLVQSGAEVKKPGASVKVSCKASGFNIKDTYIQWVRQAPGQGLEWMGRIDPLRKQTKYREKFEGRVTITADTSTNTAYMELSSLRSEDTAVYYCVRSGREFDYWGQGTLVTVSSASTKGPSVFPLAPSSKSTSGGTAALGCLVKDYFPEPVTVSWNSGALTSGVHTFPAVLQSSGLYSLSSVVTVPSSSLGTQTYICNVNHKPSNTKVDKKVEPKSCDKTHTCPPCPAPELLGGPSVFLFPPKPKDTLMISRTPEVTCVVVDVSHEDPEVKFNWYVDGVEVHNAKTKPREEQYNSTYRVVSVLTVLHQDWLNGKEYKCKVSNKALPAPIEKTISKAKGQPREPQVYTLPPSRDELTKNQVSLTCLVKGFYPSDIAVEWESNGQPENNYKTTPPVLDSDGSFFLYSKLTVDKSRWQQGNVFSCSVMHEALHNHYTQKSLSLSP
light: B1 light
modifications: fucose removed from the sugar chain (afucosylated)
notes: Anti-epiregulin IgG1, afucosylated; also called afucosylated antibody
B3: H240-Kn205/H240-Hl212/L73-k0 (antibody, human IgG1, kappa)
heavy 1: B1 heavy 1 with L233Y, D238S, Y295W, S297C, L329A, E331I
heavy 2: B1 heavy 1 with L329A, E331I, K333V, C348Y, D355C, W365S, L367A, Y406V
light: B1 light
notes: L234Y/Y296W/S298C in one H chain, S239D/K334V in the other
B4: H240-Kn204/H240-Hl211/L73-k0 (antibody, human IgG1, kappa)
heavy 1: B1 heavy 1 with L233Y, D238S, K289Y, Y295W, L329A, E331I
heavy 2: B1 heavy 1 with L329M, E331I, K333V, C348Y, D355C, W365S, L367A, Y406V
light: B1 light
notes: L234Y/K290Y/Y296W in one H chain, S239D/A330M/K334V in the other
B5: H240-Kn037/H240-Hl036/L73-k0 (antibody, human IgG1, kappa)
heavy 1: B1 heavy 1 with G235A, L329A
heavy 2: B1 heavy 1 with G235A, L329A, C348Y, D355C, W365S, L367A, Y406V
light: B1 light
notes: it says that both H chains have G236A/S239D/I332E
B6: H240-Kn229/H240-Hl068/L73-k0 (antibody, human IgG1, kappa)
heavy 1: B1 heavy 1 with L233Y, L234Y, G235W, D238I, H267D, S297A, A326D, L329A, E331I
heavy 2: QDQLVQSGAEVKKPGASVKVSCKASGFNIKDTYIQWVRQAPGQGLEWMGRIDPLRKQTKYREKFEGRVTITADTSTNTAYMELSSLRSEDTAVYYCVRSGREFDYWGQGTLVTVSSASTKGPSVFPLAPSSKSTSGGTAALGCLVKDYFPEPVTVSWNSGALTSGVHTFPAVLQSSGLYSLSSVVTVPSSSLGTQTYICNVNHKPSNTKVDKKVEPKSCDKTHTCPPCPAPELLGGPSVFLFPPKPKDTLMISRTPEVTCVVVDVSHEEPEVKFNWYVDGVEVHNAKTKPREEQYNSTYRVVSVLTVLHQDWLNGKEYKCKVSNDALPKPIEETISKAKGQPREPQVYTLPPSRCELTKNQVSLSCAVKGFYPSDIAVEWESNGQPENNYKTTPPVLDSDGSFFLVSKLTVDKSRWQQGNVFSCSVMHEALHNHYTQKSLSLSP
light: B1 light
B7: H240-Kn225/H240-Hl076/L73-k0 (antibody, human IgG1, kappa)
heavy 1: B1 heavy 1 with L233Y, L234Q, G235W, D238I, H267D, D269E, S297A, L329A, E331I
heavy 2: B6 heavy 2 with K329M
light: B1 light
B8: GpH7-G1d/GpL16-k0 (antibody, human IgG1, kappa)
heavy: not shown
light: DIVMTQSPLSLPVTPGEPASISCQASESLVHSNRNTYLHWYLQKPGQSPQLLIYKVSNRFSGVPDRFSGSGSGTDFTLKISRVEAEDVGVYYCSQNTHVPPTFGQGTKVEIERTVAAPSVFIFPPSDEQLKSGTASVVCLLNNFYPREAKVQWKVDNALQSGNSQESVTEQDSKDSTYSLSSTLTLSKADYEKHKVYACEVTHQGLSSPVTKSFNRGEC
notes: Anti-glypican-3 IgG1 whose H chain lacks the C-terminal Gly and Lys; Used as the native IgG1 control; also called native IgG1
B9: GpH7-G1d/GpL16-k0 (antibody, human IgG1, kappa)
heavy: not shown
light: B8 light
notes: Anti-glypican-3 IgG1 with C-terminal Gly and Lys removed; also called native IgG1
B10: GpH7-A5/GpH7-B3/GpL16-k0 (antibody, human IgG1, kappa)
heavy 1: not shown
heavy 2: not shown
light: B8 light
notes: also called A5/B3; HeCon Ab
B11: GpH7-TA7/GpH7-B3/GpL16-k0 (antibody, human IgG1, kappa)
heavy 1: QVQLVQSGAEVKKPGASVTVSCKASGYTFTDYEMHWIRQPPGEGLEWIGAIDPKTGDTAYSESFQDRVTLTADKSTSTAYMELSSLTSEDTAVYYCTRFYSYTYWGQGTLVTVSSASTKGPSVFPLAPSSKSTSGGTAALGCLVKDYFPEPVTVSWNSGALTSGVHTFPAVLQSSGLYSLSSVVTVPSSSLGTQTYICNVNHKPSNTKVDKKVEPKSCDKTHTCPPCPAPEYLWGPSVFLFPPKPKDTLMISRTPEVTCVVVDVSHEDPEVKFNWYVDGVEVHNAKTKPREEQYNATYRVVSVLTVLHQDWLNGKEYKCKVSNKALPAPIEKTISKAKGQPREPQVYTLPPSRKELTKNQVSLTCLVKGFYPSDIAVEWESNGQPENNYKTTPPVLDSDGSFFLYSKLTVDKSRWQQGNVFSCSVMHEALHNRYTQKSLSLSP
heavy 2: not shown
light: B8 light
notes: Heterodimerized anti-glypican-3 IgG1; also called TA7/B3
B12: GpH7-A57/GpH7-B78/GpL16-k0 (antibody, human IgG1, kappa)
heavy 1: B11 heavy 1 with Y232L, W234G, S237D, A296S, A328L, I330E
heavy 2: B11 heavy 1 with Y232L, W234G, S237D, A296S, A328L, I330E, K354D, R433H, K437E
light: B8 light
notes: Anti-glypican-3 IgG1; also called A57/B78
B13: GpH7-A5/GpH7-B78/GpL16-k0 (antibody, human IgG1, kappa)
heavy 1: not shown
heavy 2: B11 heavy 1 with Y232L, W234G, S237D, A296S, A328L, I330E, K354D, R433H, K437E
light: B8 light
notes: Heterodimerized anti-glypican-3 IgG1; also called A5/B78

What was measured:
FcgRIIaR = target: T1, FcgRIIaR; assay: SPR (Biacore); KD of H240-Kn033/H240-Hl033/L73-k0 divided by KD of the variant
Procedure: (§1) Binding of the produced variants to FcgRIa, FcgRIIaR, FcgRIIaH, FcgRIIb, FcgRIIIaF, and FcgRIIIaV was measured according to the method of Reference Example 8.
(§2) Analysis of interaction between objective antibody and the FcγR was carried out using Biacore T100 (GE Healthcare), Biacore T200, Biacore A100, and Biacore 4000. HBS-EP+ (GE Healthcare) was used as the running buffer, and the measurement temperature was set to 25° C. Chips produced by immobilizing the antigen peptide by the amine coupling method to a Series S sensor Chip CM5 (GE Healthcare), chips produced by allowing preliminarily biotinylated antigen peptides to interact with and immobilize onto a Series S Sensor Chip SA (certified) (GE Healthcare), chips produced by immobilizing Protein L (ACTIGEN, BioVision) to Series S Sencor Chip CM5 (GE Healthcare), or chips produced by immobilizing Protein A/G (Thermo Scientific) to Series S Sencor Chip CM5 (GE Healthcare) were used. Antibodies of interest were captured onto these chips, and allowed to interact to each FcγR diluted with running buffer. To regenerate and repeatedly use the chip, the antibodies captured onto the chip were washed off by reacting 10 mM glycine-HCl, pH 1.5.

FcgRIIaH = target: T2, FcgRIIaH; assay: as above
Procedure: as §1, §2

FcgRIIb = target: T3, FcgRIIb; assay: as above
Procedure: as §1, §2

FcgRIIIaF = target: T4, FcgRIIIaF (human, UniProt P08637 17-208); assay: as above
T4 construct: extracellular domain; also called FcγRIIIa F; not shown: His tag at the C terminus
Procedure: as §1, §2

FcgRIIIaV = target: T5, FcgRIIIaV (human, UniProt P08637 17-208); assay: as above
T5 construct: extracellular domain; also called FcγRIIIa V; not shown: His tag at the C terminus
Procedure: as §1, §2

FcγRIIIa = target: T6, FcγRIIIa (human, UniProt P08637 17-208); assay: ratio of SPR KDs: KD of GpH7-G1d/GpL16-k0 divided by KD of this antibody
T6 construct: extracellular domain; also called FcgRIIIa; CD16A; not shown: His tag attached to the C terminus
Procedure: The prepared antibodies were compared for the FcγRIIIa-binding activity using, as an indicator, KD for FcγRIIIa that was determined according to the method described in Reference Example 2.
(§3) Analysis of interaction between objective antibody and the FcγR was carried out using Biacore T100 (GE Healthcare). HBS-EP+ (GE Healthcare) was used as the running buffer, and the measurement temperature was set to 25° C. Chips produced by immobilizing the antigen peptide by the amine coupling method to a Series S Sencor Chip CM5 (GE Healthcare), or alternatively, chips produced by allowing preliminarily biotinylated antigen peptides to interact with and immobilize onto a Series S Sensor Chip SA (certified) (GE Healthcare) were used. Antibodies of interest were captured onto an antigen peptide-immobilized chip, and allowed to interact to each FcγR diluted with running buffer. To regenerate and repeatedly use the chip, the antibodies captured on the chip were washed off by reacting 10 mM glycine-HCl, pH 1.5.
Specifically, to calculate association rate constant ka (L/mol/s) and dissociation rate constant kd (1/s), sensorgrams obtained by measurement were processed for global fitting by Biacore Evaluation Software using 1:1 Langmuir binding model and dissociation constant KD (mol/1) was calculated from the resulting values.

[1] = target: T7, FcγRIIIa F extracellular domain with C-terminal His tag (human, UniProt P08637 17-208); assay: SPR (Biacore); KD for FcγRIIb divided by KD for FcγRIIIa F
T7 construct: extracellular domain; Soluble receptor, F158 allotype; also called FcgRIIIa F; FcgRIIIaF; not shown: His tag at the C terminus
Procedure: The prepared antibodies were assayed as to the KDs for FcγRIIIa and FcγRIIb according to the method described in Reference Example 2.
as §3

T4 sequence (P08637 17-208): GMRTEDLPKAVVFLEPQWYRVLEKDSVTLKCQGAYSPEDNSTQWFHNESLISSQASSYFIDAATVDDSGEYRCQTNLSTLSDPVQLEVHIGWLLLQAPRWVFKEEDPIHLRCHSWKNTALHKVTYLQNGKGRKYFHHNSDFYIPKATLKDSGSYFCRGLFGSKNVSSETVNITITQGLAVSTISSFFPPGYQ
T7 sequence (P08637 17-208): as above
T5 sequence (P08637 17-208 F176V limits assumed): as the sequence (P08637 17-208) above, with F160V counted along it
T6 sequence (P08637 17-208): as the sequence (P08637 17-208) above

Binder	fold 2aR (FcgRIIaR) [fold]	fold 2aH (FcgRIIaH) [fold]	fold 2b (FcgRIIb) [fold]	fold 3aF (FcgRIIIaF) [fold]	fold 3aV (FcgRIIIaV) [fold]	KD ratio 1 (FcγRIIIa) [fold]	FcγRIIIa F/FcγRIIb ratio [1]
B1	2.2	0.8	5.3	31.9	15.5	–	–
B2	1.5	0.7	1.3	3.7	7	–	–
B3	1.2	1.4	2.1	24.2	11.4	–	–
B4	1.2	0.7	2.5	20.7	6.5	–	–
B5	25.5	11.3	8.7	13.8	7.1	–	–
B6	46.3	13.3	16.5	138	62.3	–	–
B7	1.5	3.1	0.6	264	253	–	–
B8	–	–	–	–	–	1	–
B9	–	–	–	–	–	–	2.5
B10	–	–	–	–	–	–	1.9
B11	–	–	–	–	–	–	14
B12	–	–	–	–	–	–	100
B13	–	–	–	–	–	–	7.9
